The values below are quoted from earlier work in paper PMC4131687.

In data set [1] the target is NaV1.4 (Rattus norvegicus) (UniProt P15390).
Data set [2] has as its target NaV1.2 (Rattus norvegicus) (UniProt P04775).

Sequence of NaV1.2 (Rattus norvegicus) (P04775 whole entry): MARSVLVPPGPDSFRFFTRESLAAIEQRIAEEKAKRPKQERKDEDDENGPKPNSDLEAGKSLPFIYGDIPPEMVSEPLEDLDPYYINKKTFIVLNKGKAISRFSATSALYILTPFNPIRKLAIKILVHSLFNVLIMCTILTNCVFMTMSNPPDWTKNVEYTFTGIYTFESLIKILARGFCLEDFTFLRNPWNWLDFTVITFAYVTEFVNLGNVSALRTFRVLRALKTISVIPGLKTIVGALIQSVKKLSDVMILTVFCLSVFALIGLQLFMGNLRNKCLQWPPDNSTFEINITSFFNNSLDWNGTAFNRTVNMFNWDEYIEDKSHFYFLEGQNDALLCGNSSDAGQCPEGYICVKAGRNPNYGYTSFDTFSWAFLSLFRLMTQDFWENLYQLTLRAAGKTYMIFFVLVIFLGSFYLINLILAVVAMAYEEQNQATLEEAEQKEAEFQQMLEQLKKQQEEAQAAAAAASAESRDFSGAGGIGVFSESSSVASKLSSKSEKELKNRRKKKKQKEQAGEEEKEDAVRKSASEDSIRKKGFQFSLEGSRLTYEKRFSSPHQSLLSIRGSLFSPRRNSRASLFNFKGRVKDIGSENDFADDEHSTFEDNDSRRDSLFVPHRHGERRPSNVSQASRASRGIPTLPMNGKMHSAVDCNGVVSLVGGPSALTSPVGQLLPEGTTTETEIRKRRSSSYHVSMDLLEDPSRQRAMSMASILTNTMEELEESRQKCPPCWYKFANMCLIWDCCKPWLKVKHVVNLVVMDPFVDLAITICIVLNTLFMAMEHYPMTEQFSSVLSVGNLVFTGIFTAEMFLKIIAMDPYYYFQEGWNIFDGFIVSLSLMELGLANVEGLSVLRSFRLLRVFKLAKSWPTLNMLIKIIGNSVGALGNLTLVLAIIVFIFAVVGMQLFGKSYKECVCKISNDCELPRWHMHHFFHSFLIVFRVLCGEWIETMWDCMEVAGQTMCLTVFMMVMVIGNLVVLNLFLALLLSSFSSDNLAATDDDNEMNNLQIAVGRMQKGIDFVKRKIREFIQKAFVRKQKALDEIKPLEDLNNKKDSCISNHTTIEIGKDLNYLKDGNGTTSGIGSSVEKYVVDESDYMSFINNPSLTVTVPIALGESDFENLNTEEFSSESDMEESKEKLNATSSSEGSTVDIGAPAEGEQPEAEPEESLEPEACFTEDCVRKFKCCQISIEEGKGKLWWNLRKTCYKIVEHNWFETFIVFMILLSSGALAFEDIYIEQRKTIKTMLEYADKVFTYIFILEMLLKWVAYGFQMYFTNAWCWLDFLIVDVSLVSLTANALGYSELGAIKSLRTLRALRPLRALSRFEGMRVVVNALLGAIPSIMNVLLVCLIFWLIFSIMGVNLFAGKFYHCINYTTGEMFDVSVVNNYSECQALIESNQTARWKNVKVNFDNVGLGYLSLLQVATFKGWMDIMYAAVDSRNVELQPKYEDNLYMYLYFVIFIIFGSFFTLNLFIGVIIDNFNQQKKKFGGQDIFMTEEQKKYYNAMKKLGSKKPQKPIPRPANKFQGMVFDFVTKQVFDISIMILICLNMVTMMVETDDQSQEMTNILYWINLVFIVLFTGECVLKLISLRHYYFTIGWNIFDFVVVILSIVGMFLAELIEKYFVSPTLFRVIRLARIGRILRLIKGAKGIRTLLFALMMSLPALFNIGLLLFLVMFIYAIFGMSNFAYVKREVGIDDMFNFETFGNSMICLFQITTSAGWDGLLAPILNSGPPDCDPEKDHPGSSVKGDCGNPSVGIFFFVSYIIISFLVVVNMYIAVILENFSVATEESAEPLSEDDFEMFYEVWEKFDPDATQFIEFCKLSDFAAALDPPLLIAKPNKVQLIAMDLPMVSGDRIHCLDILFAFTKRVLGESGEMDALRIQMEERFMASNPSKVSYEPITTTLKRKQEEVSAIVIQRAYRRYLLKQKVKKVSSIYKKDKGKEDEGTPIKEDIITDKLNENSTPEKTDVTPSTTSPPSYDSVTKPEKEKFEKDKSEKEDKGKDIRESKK
Sequence of NaV1.4 (Rattus norvegicus) (P15390 whole entry): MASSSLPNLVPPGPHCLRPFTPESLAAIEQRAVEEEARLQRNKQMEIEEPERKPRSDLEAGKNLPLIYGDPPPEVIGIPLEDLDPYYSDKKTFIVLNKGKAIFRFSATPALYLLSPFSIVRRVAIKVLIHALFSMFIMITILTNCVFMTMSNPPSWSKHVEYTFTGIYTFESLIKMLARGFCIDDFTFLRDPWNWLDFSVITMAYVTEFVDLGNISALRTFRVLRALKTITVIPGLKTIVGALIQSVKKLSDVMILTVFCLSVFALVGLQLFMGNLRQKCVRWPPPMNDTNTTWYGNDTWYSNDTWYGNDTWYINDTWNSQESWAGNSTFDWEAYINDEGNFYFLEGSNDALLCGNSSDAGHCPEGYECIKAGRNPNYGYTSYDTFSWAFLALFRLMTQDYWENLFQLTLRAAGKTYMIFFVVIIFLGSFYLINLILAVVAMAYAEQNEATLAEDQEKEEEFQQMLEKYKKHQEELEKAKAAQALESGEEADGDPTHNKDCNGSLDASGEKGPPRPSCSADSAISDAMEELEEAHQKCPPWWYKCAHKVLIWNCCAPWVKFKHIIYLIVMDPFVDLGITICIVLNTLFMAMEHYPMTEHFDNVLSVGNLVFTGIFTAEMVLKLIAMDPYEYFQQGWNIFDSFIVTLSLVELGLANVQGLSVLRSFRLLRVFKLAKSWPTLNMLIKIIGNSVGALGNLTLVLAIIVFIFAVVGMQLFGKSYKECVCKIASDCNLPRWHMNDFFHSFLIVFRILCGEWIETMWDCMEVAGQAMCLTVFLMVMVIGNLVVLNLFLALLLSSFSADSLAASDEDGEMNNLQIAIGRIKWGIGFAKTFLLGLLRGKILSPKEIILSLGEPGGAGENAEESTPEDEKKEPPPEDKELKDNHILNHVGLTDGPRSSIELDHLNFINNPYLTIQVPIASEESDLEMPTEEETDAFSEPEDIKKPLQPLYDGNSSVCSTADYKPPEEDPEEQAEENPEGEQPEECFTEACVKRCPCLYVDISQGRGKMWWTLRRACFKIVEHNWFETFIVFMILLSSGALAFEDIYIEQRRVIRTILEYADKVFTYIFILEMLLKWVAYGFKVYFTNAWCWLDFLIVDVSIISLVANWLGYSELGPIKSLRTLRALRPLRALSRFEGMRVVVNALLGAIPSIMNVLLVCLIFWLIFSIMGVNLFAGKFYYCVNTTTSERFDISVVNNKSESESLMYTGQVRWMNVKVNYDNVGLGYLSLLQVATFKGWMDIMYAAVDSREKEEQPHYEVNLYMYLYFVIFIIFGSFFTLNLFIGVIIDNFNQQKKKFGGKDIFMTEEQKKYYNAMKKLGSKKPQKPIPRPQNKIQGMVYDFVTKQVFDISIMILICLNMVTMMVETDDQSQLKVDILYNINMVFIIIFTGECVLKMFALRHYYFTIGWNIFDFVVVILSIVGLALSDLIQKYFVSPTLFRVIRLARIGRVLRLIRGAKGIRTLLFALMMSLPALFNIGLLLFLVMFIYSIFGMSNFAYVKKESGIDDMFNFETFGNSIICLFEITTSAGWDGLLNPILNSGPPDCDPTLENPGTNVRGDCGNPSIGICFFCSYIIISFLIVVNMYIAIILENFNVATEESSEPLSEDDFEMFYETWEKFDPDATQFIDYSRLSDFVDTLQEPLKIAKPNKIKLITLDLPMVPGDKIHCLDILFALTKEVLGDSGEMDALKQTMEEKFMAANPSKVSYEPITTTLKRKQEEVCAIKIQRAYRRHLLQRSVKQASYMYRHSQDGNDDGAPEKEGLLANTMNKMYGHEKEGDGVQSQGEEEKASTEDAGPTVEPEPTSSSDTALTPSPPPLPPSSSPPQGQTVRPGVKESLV

For the substance “mu-conotoxin KIIIA (from UniProt P0C195)”, the Kd (usually the constant that tells how readily two partners part at equilibrium) in data set [1] was 0.05 µM.

For the substance “μ-conotoxin KIIIA-P1 (from UniProt P0C195)”, the Kd in data set [2] was 0.005 µM.
